The results in this text go back to patent publication US20240270846A1 (published 2024).

This experiment deals with T1, CD3 epsilon homodimer protein (UniProt P07766 23-126).
T1 construct: Construct of the homodimer is not described; also called CD3 (CD3 epsilon)
The experiment can be described thus: SPR Biacore T200, CD3e homodimer on chip, antibody analyte.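 Also: CD3 epsilon homodimer amine-coupled on CM4 sensor chip, antibodies injected as analyte at 25 °C in HBS-EP+, ratio ≥0.8 taken as binding retained versus unaltered parent antibody.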 A general note: Surface plasmon resonance follows binding to a sensor surface in real time, without labels.

Where a chain is given by its changes, count along the chain named. Names may count otherwise.

T1 sequence (P07766 23-126): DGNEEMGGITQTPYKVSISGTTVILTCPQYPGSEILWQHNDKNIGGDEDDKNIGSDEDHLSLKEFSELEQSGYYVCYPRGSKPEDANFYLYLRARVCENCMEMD

B1: GLS3000 P95L one-arm antibody (antibody, human IgG1, kappa, L234A L235A, N297A, name in Kabat numbering)
light: DIVMTQSPLSLPVTPGEPASISCRSSQSLVHSNRNTYLHWYQQKPGQAPRLLIYKVSNRFSGVPDRFSGSGSGTDFTLKISRVEAEDVGVYYCGQGTQVLYTFGQGTKLEIKRTVAAPSVFIFPPSDEQLKSGTASVVCLLNNFYPREAKVQWKVDNALQSGNSQESVTEQDSKDSTYSLSSTLTLSKADYEKHKVYACEVTHQGLSSPVTKSFNRGEC
heavy: QVQLVESGGGVVQPGRSLRLSCAASGFTFSNAWMHWVRQAPGKGLEWVAQIKAKSNNYATYYAESVKGRFTISRDDSKNSLYLQMNSLKTEDTAVYYCRYVHYGAYYGVDAWGQGTTVTVSSASTKGPSVFPLAPSSKSTSGGTAALGCLVKDYFPEPVTVSWNSGALTSGVHTFPAVLQSSGLYSLSSVVTVPSSSLGTQTYICNVNHKPSNTKVDKKVEPKSCDKTHTCPPCPAPEAAGGPSVFLFPPKPKDTLMISRTPEVTCVVVDVSHEDPEVKFNWYVDGVEVHNAKTKPREEQYASTYRVVSVLTVLHQDWLNGKEYKCKVSNKALPAPIEKTISKAKGQPREPQVYTLPPSRCELTKNQVSLSCAVKGFYPSDIAVEWESNGQPENNYKTTPPVLDSDGSFFLVSKLTVDKSRWQQGNVFSCSVMHEALHNHYTQKSLSLSPDYKDDDDK
chain: EPKSSDKTHTCPPCPAPELLGGPSVFLFPPKPKDTLMISRTPEVTCVVVDVSHEDPEVKFNWYVDGVEVHNAKTKPREEQYNSTYRVVSVLTVLHQDWLNGKEYKCKVSNKALPAPIEKTISKAKGQPREPQVCTLPPSRDELTKNQVSLWCLVKGFYPSDIAVEWESNGQPENNYKTTPPVLDSDGSFFLYSKLTVDKSRWQQGNVFSCSVMHEALHNRYTQKSLSLSP
Turning to B1, the “ratio of amounts bound (altered form/GLS3000)” value is 0.24.

B2: GLS3000 R54S one-arm antibody (antibody, human IgG1, kappa, L234A L235A, N297A, name in Kabat numbering)
light: B1 light with R59S, L100P
heavy: B1 heavy
chain: B1 chain
For B2, the “ratio of amounts bound (altered form/GLS3000)” value is 0.79.

B3: GLS3000 Q90E one-arm antibody (antibody, human IgG1, kappa, L234A L235A, N297A, name in Kabat numbering)
light: B1 light with Q95E, L100P
heavy: B1 heavy
chain: B1 chain
On to B3, for which the “ratio of amounts bound (altered form/GLS3000)” value stood at 0.86.

B4: GLS3000 Q93E one-arm antibody (antibody, human IgG1, kappa, L234A L235A, N297A, name in Kabat numbering)
light: B1 light with Q98E, L100P
heavy: B1 heavy
chain: B1 chain
B4: the “ratio of amounts bound (altered form/GLS3000)” value stood at 0.75.

B5: GLS3000 Q90S one-arm antibody (antibody, human IgG1, kappa, L234A L235A, N297A, name in Kabat numbering)
light: B1 light with Q95S, L100P
heavy: B1 heavy
chain: B1 chain
With B5, the “ratio of amounts bound (altered form/GLS3000)” value was determined as 0.73.

B6: GLS3000 Q90P one-arm antibody (antibody, human IgG1, kappa, L234A L235A, N297A, name in Kabat numbering)
light: B1 light with Q95P, L100P
heavy: B1 heavy
chain: B1 chain
Turning to B6, the “ratio of amounts bound (altered form/GLS3000)” value worked out at 0.27.

B7: GLS3000 Q93P one-arm antibody (antibody, human IgG1, kappa, L234A L235A, N297A, name in Kabat numbering)
light: B1 light with Q98P, L100P
heavy: B1 heavy
chain: B1 chain
Regarding B7, the “ratio of amounts bound (altered form/GLS3000)” value worked out at 0.25.

B8: GLS3000 S56F one-arm antibody (antibody, human IgG1, kappa, L234A L235A, N297A, name in Kabat numbering)
light: B1 light with S61F, L100P
heavy: B1 heavy
chain: B1 chain
For B8, the “ratio of amounts bound (altered form/GLS3000)” value stood at 1.32.

B9: GLS3000 R54P one-arm antibody (antibody, human IgG1, kappa, L234A L235A, N297A, name in Kabat numbering)
light: B1 light with R59P, L100P
heavy: B1 heavy
chain: B1 chain
Turning to B9, the “ratio of amounts bound (altered form/GLS3000)” value came out at 0.84.

B10: GLS3000 S52Q one-arm antibody (antibody, human IgG1, kappa, L234A L235A, N297A, name in Kabat numbering)
light: B1 light with S57Q, L100P
heavy: B1 heavy
chain: B1 chain
Consider B10, for which the “ratio of amounts bound (altered form/GLS3000)” value is 1.05.

B11: GLS3000 R54Q one-arm antibody (antibody, human IgG1, kappa, L234A L235A, N297A, name in Kabat numbering)
light: B1 light with R59Q, L100P
heavy: B1 heavy
chain: B1 chain
With B11, the “ratio of amounts bound (altered form/GLS3000)” value was 0.68.

B12: GLS3000 Q90A one-arm antibody (antibody, human IgG1, kappa, L234A L235A, N297A, name in Kabat numbering)
light: B1 light with Q95A, L100P
heavy: B1 heavy
chain: B1 chain
With B12, the “ratio of amounts bound (altered form/GLS3000)” value amounted to 0.5.

B13: GLS3000 Q93A one-arm antibody (antibody, human IgG1, kappa, L234A L235A, N297A, name in Kabat numbering)
light: B1 light with Q98A, L100P
heavy: B1 heavy
chain: B1 chain
Turning to B13, the “ratio of amounts bound (altered form/GLS3000)” value came out at 0.85.

B14: GLS3000 Q93R one-arm antibody (antibody, human IgG1, kappa, L234A L235A, N297A, name in Kabat numbering)
light: B1 light with Q98R, L100P
heavy: B1 heavy
chain: B1 chain
For B14, the “ratio of amounts bound (altered form/GLS3000)” value was determined as 1.13.

B15: GLS3000 Q93D one-arm antibody (antibody, human IgG1, kappa, L234A L235A, N297A, name in Kabat numbering)
light: B1 light with Q98D, L100P
heavy: B1 heavy
chain: B1 chain
As to B15, the “ratio of amounts bound (altered form/GLS3000)” value came out at 0.72.

B16: GLS3000 S56E one-arm antibody (antibody, human IgG1, kappa, L234A L235A, N297A, name in Kabat numbering)
light: B1 light with S61E, L100P
heavy: B1 heavy
chain: B1 chain
Regarding B16, the “ratio of amounts bound (altered form/GLS3000)” value was found to be 0.71.

B17: GLS3000 R54E one-arm antibody (antibody, human IgG1, kappa, L234A L235A, N297A, name in Kabat numbering)
light: B1 light with R59E, L100P
heavy: B1 heavy
chain: B1 chain
For the molecule B17, the “ratio of amounts bound (altered form/GLS3000)” value was found to be 0.58.

B18: GLS3000 S56H one-arm antibody (antibody, human IgG1, kappa, L234A L235A, N297A, name in Kabat numbering)
light: B1 light with S61H, L100P
heavy: B1 heavy
chain: B1 chain
Turning to B18, the “ratio of amounts bound (altered form/GLS3000)” value is 1.05.

B19: GLS3000 S56M one-arm antibody (antibody, human IgG1, kappa, L234A L235A, N297A, name in Kabat numbering)
light: B1 light with S61M, L100P
heavy: B1 heavy
chain: B1 chain
In the case of B19, the “ratio of amounts bound (altered form/GLS3000)” value was 1.05.

B20: GLS3000 S56L one-arm antibody (antibody, human IgG1, kappa, L234A L235A, N297A, name in Kabat numbering)
light: B1 light with S61L, L100P
heavy: B1 heavy
chain: B1 chain
As to B20, the “ratio of amounts bound (altered form/GLS3000)” value came out at 1.02.

B21: GLS3000 P95S one-arm antibody (antibody, human IgG1, kappa, L234A L235A, N297A, name in Kabat numbering)
light: B1 light with L100S
heavy: B1 heavy
chain: B1 chain
For B21, the “ratio of amounts bound (altered form/GLS3000)” value is 0.43.

B22: GLS3000 R77S one-arm antibody (antibody, human IgG1, kappa, L234A L235A, N297A, name in Kabat numbering)
light: B1 light with R82S, L100P
heavy: B1 heavy
chain: B1 chain
In the case of B22, the “ratio of amounts bound (altered form/GLS3000)” value turned out to be 0.92.

B23: GLS3000 R54G one-arm antibody (antibody, human IgG1, kappa, L234A L235A, N297A, name in Kabat numbering)
light: B1 light with R59G, L100P
heavy: B1 heavy
chain: B1 chain
As for B23, the “ratio of amounts bound (altered form/GLS3000)” value turned out to be 0.67.

B24: GLS3000 S56G one-arm antibody (antibody, human IgG1, kappa, L234A L235A, N297A, name in Kabat numbering)
light: B1 light with S61G, L100P
heavy: B1 heavy
chain: B1 chain
For the molecule B24, the “ratio of amounts bound (altered form/GLS3000)” value is 0.92.

B25: GLS3000 R54T one-arm antibody (antibody, human IgG1, kappa, L234A L235A, N297A, name in Kabat numbering)
light: B1 light with R59T, L100P
heavy: B1 heavy
chain: B1 chain
Consider B25, for which the “ratio of amounts bound (altered form/GLS3000)” value worked out at 0.65.

B26: GLS3000 S52P one-arm antibody (antibody, human IgG1, kappa, L234A L235A, N297A, name in Kabat numbering)
light: B1 light with S57P, L100P
heavy: B1 heavy
chain: B1 chain
As for B26, the “ratio of amounts bound (altered form/GLS3000)” value is 0.33.

B27: GLS3000 S56I one-arm antibody (antibody, human IgG1, kappa, L234A L235A, N297A, name in Kabat numbering)
light: B1 light with S61I, L100P
heavy: B1 heavy
chain: B1 chain
B27: the “ratio of amounts bound (altered form/GLS3000)” value amounted to 0.99.

B28: GLS3000 S52Y one-arm antibody (antibody, human IgG1, kappa, L234A L235A, N297A, name in Kabat numbering)
light: B1 light with S57Y, L100P
heavy: B1 heavy
chain: B1 chain
For B28, the “ratio of amounts bound (altered form/GLS3000)” value turned out to be 1.12.

B29: GLS3000 Q90D one-arm antibody (antibody, human IgG1, kappa, L234A L235A, N297A, name in Kabat numbering)
light: B1 light with Q95D, L100P
heavy: B1 heavy
chain: B1 chain
As for B29, the “ratio of amounts bound (altered form/GLS3000)” value stood at 0.19.

B30: GLS3000 R54W one-arm antibody (antibody, human IgG1, kappa, L234A L235A, N297A, name in Kabat numbering)
light: B1 light with R59W, L100P
heavy: B1 heavy
chain: B1 chain
For B30, the “ratio of amounts bound (altered form/GLS3000)” value came to 0.78.

B31: GLS3000 Q93S one-arm antibody (antibody, human IgG1, kappa, L234A L235A, N297A, name in Kabat numbering)
light: B1 light with Q98S, L100P
heavy: B1 heavy
chain: B1 chain
Regarding B31, the “ratio of amounts bound (altered form/GLS3000)” value is 0.96.

B32: GLS3000 S56K one-arm antibody (antibody, human IgG1, kappa, L234A L235A, N297A, name in Kabat numbering)
light: B1 light with S61K, L100P
heavy: B1 heavy
chain: B1 chain
As to B32, the “ratio of amounts bound (altered form/GLS3000)” value came to 1.46.
